Test results: patent US20040142357A1

Molecular target: telomerase of HT1080 cells (telomerase-containing fraction, or cellular telomerase in stable HT1080 lines) (human) (UniProt O14746)
Experiment: cell-based or functional assay

telomerase of HT1080 cells (telomerase-containing fraction, or cellular telomerase in stable HT1080 lines) (human), sequence (O14746 whole entry): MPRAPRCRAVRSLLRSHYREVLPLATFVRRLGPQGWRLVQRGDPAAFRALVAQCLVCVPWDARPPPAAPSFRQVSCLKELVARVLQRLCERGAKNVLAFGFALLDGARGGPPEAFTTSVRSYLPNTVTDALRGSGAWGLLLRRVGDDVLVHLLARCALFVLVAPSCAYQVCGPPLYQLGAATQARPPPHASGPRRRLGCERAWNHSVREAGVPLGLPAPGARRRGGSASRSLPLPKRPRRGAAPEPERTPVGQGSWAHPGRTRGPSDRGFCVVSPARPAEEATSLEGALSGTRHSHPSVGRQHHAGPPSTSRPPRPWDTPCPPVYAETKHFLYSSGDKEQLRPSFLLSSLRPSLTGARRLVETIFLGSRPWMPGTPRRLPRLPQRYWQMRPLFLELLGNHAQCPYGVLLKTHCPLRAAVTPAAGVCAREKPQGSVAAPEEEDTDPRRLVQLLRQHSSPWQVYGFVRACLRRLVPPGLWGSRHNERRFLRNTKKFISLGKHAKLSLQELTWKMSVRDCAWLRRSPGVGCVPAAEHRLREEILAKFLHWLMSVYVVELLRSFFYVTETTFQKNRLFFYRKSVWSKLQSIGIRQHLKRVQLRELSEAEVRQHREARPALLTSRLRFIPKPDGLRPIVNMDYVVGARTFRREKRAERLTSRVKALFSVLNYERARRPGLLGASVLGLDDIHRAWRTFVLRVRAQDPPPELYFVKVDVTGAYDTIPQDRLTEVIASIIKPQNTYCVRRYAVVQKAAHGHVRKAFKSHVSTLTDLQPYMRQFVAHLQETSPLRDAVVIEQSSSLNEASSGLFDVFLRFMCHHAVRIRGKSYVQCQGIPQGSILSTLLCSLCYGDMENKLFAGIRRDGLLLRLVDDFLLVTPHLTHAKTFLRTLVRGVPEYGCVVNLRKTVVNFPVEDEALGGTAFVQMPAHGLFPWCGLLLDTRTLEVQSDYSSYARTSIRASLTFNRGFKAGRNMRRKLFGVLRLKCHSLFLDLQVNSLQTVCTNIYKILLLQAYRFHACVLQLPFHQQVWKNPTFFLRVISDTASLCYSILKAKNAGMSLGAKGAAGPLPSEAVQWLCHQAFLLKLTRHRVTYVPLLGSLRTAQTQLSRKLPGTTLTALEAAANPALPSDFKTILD

IC50 of inhibition of telomerase activity in vitro (TRAP assay): 25 nM
Substance: His-PinX1 (N-terminal His fusion of PinX1, pET28a) (from UniProt Q96BK5 1-328)
